Values of other authors as cited in patent US20210338656A1, “IMMUNOSTIMULATORY AGENTS IN COMBINATION WITH ANGIOGENESIS INHIBITORS” (Alkermes Pharma Ireland Limited, priority 2020, published 2021).

System: CD8+ T cells, NK cells, Tregs
Settings: human patients; cited from earlier work

B1: fusion protein of SEQ ID NO: 1: circularly permuted (cp) IL-2 variant fused to the extracellular domain of the IL-2Rα portion of the IL-2 receptor (protein)
chain: SKNFHLRPRDLISNINVIVLELKGSETTFMCEYADETATIVEFLNRWITFSQSIISTLTGGSSSTKKTQLQLEHLLLDLQMILNGINNYKNPKLTRMLTFKFYMPKKATELKHLQCLEEELKPLEEVLNLAQGSGGGSELCDDDPPEIPHATFKAMAYKEGTMLNCECKRGFRRIKSGSLYMLCTGNSSHSSWDNQCQCTSSATRNTTKQVTPQPEEQKERKTTEMQSPMQPVDQASLPGHCREPPPWENEATERIYHFVVGQMVYYQCVQGYRALHRGPAESVCKMTHGKTRWTQPQLICTG
modifications: Human cpIL-2IL-2R-alpha
notes: circularly permuted (cp) IL-2 variant fused to the extracellular domain of the IL-2Rα portion of the IL-2 receptor
activation of T regs: absence of dose dependent activation | expansion of CD8+ T cells and NK cells: in a dose dependent manner | relative expansion of immunosuppressive Tregs as compared to high dose rhIL-2: at least two fold less
